Literature values as cited in paper PMC6503043.
Like-named read-outs stand apart in the source and are kept apart here.

What was measured:
CD28 (Homo sapiens) [1] = target: CD28 (Homo sapiens) (UniProt P10747)
CD28 (Homo sapiens) [2] = target: CD28 (Homo sapiens) (UniProt P10747); remark: listed apart in the source

Row | Substance | Kd (CD28 (Homo sapiens) [1]) [µM] | Kd (CD28 (Homo sapiens) [2]) [µM]
1 | B7-1 (from UniProt P33681) | 5 | 
2 | B7-2 (from UniProt P42081) |  | 20
